Sequences and labels used below:
B1: wild-type N2 VHH antibody mutant W100eA [camelid] / TAMRA-labeled α-synuclein peptide [modified: tetramethylrhodamine (TAMRA) fluorophore, position not stated; tetramethylrhodamine (TAMRA) fluorophore, position not stated] [not stated] (parent)
chain 1: GQLVESGGGSVQAGGSLRLSCAASGIDSSSYCMGWFRQRPGKEREGVARINGLGGVKTAYADSVKDRFTISRDNAENTVYLQMNSLKPEDTAIYYCAAKFSPGYCGGSWSNFGYWGQGTQVTVSSH
chain 2: GYQDYEPEA

In the assay the parent is B1. The assay is described as follows: fluorescence polarization. The settings on record: with TAMRA-labeled α-synuclein peptide [modified: tetramethylrhodamine (TAMRA) fluorophore, 400 nM VHH, 2 nM TAMRA-labeled α-synuclein peptide, parent: 1, read off a plot. Background: Fluorescence polarisation rises when a labelled molecule tumbles more slowly, as on binding a larger partner.
chain 1 W109A: the ratio to parent is 0.075.
The value for chain 1 Y104A was 0.07.
Under chain 1 K57A stands 0.1.
For the variant chain 1 N51A, the ratio to parent was determined as 0.015.
Under chain 1 I50A stands 0.41.
Regarding chain 1 G55A, the ratio to parent was determined as 0.015.
Under chain 1 G52A stands -0.01.

The record behind these values is paper PMC5591402.
